Results: publication PMC8686788 (Science (New York, N.Y.), 2021)
Positions count from the first letter of the chain named. Names and notes keep the numbering of the source. Like-named read-outs stand apart in the source and are kept apart here. Blank lines part the entries; values can stand above or below the binder they belong to.

Tests used:
Assay in all cases: fluorescence polarisation
[1] = molecular target: T1, KaiC (Synechococcus elongatus, UniProt Q79PF4 1-519)
T1 sequence (looked up): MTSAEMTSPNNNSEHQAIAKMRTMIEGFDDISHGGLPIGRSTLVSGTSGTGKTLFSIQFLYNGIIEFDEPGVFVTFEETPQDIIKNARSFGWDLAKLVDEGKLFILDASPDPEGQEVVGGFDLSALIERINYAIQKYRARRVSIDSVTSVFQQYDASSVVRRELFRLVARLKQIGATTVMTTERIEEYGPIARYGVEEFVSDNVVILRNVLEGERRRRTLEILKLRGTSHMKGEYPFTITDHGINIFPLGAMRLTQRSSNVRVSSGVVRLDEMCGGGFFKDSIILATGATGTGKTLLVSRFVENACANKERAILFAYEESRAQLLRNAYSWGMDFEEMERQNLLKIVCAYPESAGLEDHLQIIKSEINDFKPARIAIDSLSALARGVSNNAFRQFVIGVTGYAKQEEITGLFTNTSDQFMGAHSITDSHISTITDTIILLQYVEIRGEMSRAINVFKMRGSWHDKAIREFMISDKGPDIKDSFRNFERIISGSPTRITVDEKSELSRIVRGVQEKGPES

[2] = molecular target: T2, KaiC-EA (Synechococcus elongatus, UniProt Q79PF4 1-519, S431E (KaiC-EA) | T432A (KaiC-EA))
T2 sequence (looked up): T1 sequence (looked up) with S431E, T432A

[3] = molecular target: T3, circadian input kinase A, CikA (Synechococcus elongatus, UniProt Q9KHI5 1-754, fluorescent probe attached by sortase A-mediated ligation)
T3 sequence (looked up): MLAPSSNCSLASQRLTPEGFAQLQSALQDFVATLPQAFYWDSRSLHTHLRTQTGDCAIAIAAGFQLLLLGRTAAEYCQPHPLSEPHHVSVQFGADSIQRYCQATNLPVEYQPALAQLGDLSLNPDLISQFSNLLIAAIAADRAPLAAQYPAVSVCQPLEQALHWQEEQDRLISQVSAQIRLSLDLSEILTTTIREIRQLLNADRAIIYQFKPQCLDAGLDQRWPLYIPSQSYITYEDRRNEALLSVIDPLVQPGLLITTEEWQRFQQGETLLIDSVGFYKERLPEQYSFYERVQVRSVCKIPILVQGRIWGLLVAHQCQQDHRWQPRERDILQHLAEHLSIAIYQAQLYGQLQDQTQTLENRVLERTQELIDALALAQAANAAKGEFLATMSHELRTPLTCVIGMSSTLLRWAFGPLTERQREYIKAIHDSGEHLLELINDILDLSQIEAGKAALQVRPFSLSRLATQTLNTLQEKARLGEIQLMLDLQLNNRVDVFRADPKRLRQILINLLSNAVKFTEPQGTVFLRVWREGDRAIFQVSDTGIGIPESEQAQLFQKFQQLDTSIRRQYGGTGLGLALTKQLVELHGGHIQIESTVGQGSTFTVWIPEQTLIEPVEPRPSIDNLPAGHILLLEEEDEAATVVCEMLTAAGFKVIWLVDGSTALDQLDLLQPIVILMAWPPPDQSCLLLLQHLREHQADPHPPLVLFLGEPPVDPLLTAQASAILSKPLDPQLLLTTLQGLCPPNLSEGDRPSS

[4] = molecular target: T1, KaiC; remark: listed apart in the source

binding result [1]: binds
B1: KaiA (natural protein, Synechococcus elongatus, UniProt Q79PF6 1-284, looked up)
chain: MLSQIAICIWVESTAILQDCQRALSADRYQLQVCESGEMLLEYAQTHRDQIDCLILVAANPSFRAVVQQLCFEGVVVPAIVVGDRDSEDPDEPAKEQLYHSAELHLGIHQLEQLPYQVDAALAEFLRLAPVETMADHIMLMGANHDPELSSQQRDLAQRLQERLGYLGVYYKRDPDRFLRNLPAYESQKLHQAMQTSYREIVLSYFSPNSNLNQSIDNFVNMAFFADVPVTKVVEIHMELMDEFAKKLRVEGRSEDILLDYRLTLIDVIAHLCEMYRRSIPRET
modifications: fluorescent probe attached by sortase A-mediated ligation

binding result [1]: binds
binding result [2]: binds
B2: KaiB (natural protein, Synechococcus elongatus, UniProt Q79PF5 1-102, looked up)
chain: MSPRKTYILKLYVAGNTPNSVRALKTLKNILEVEFQGVYALKVIDVLKNPQLAEEDKILATPTLAKVLPLPVRRIIGDLSDREKVLIGLDLLYGELQDSDDF
modifications: fluorescent probe attached by sortase A-mediated ligation

binding result [3]: binds
B3: KaiB-KaiC complex (complex, Synechococcus elongatus)
chain 1: B2 chain
chain 2: T1 sequence (looked up)

binding result [4]: binds
B4: SasA-H28A-Q94A (enzyme, Synechococcus elongatus, UniProt Q06904 1-387, looked up)
chain: MGESLSPQALAQPLLLQLFVDTRPLSQAIVQRVKNILAAVEATVPISLQVINVADQPQLVEYYRLVVTPALVKIGPGSRQVLSGIDLTDQLANALPQWLVQQEAFFADREPPEVNIPFTELGQPETPALQQADAFFQLQQQYADLSERTKFLEQVIALVAHDLRNPLTAALLAVDTIQIRSQSFSVATAKEMQGLCSLFDQARSQLREIERMIAEILEATRHSGESLRINPREVVFEPLLQQVLEQLHERWRSKQQQLITDVPGDLPTLYADPDRLRQVLVNLLDNAIKYTPPGGTITIAALHRTSQKVQISISDTGSGIPRDQLSVIFKNLVRLSRDSSQEGYGIGLSVCQRIVQAHFGRIWVASELGQGSTFHFTMPVYRYTMPC
